Here are results for 3 molecules from US20060110769A1, “Regulation of novel human prolyl 4-hydroxylases” (Bayer Aktiengesellschaft, priority 2001, published 2006).

What all share (type): cell-based, human
Assay [1] deals with HIF-2 alpha. Put plainly: Cotransfection reporter assay (HIF-RE2-luc) with HIF-2 alpha in HEK/293 cells. Conditions: for activity of HIF-2 alpha on reporter: HEK/293, hydroxylase and HIF-2 alpha cotransfected in a ratio 10:1; for activity on HIF-2 alpha compared with activity on HIF-1 alpha: HEK/293 cotransfection reporter assay. On the procedure: (§1) HIF-prolyl hydroxylase activity of PH-2 was examined in a cellular co-transfection assay in HEK/293 cells. In a typical experiment, cells were seeded at a density of 2×10^4 cells per well in 96-well tissue culture plates (Greiner, Germany) and grown in DMEM F12 tissue culture medium (Gibco) supplemented with 10% fetal calf serum (PAA) and antibiotics for 24 hours at 37° C. in a humidified tissue culture incubator (Heraeus, Germany) in a 5% CO2 atmosphere. Plasmid DNA was introduced into the HEK/293 cells by use of Lipofectamin reagent (Gibco) according to the manufacturer's instructions.
(§2) The following expression plasmids were used in transfection experiments. pCDNA3 cloning vectors were obtained from Invitrogen: • HIF-1alpha pcDNA3 containing the coding sequence of mouse hypoxia inducible factor-1 alpha (Gene bank accession number: NM_010431). • HIF-1 alpha P402G pcDNA3 containing the coding sequence of mouse hypoxia inducible factor-1 alpha in which the HIF proline hydroxylase sensitive proline residue at position 402 was replaced with glycine by site-directed mutagenesis using QuickChange™ XL Site-Directed Mutagenesis Kit, Stratagene. • HIF-1 alpha P577G pcDNA3 containing the coding sequence of mouse hypoxia inducible factor-1alpha in which the HIF proline hydroxylase sensitive proline residue at position 577 (the ortholog of P564 of human HIF) was replaced with glycine by site-directed mutagenesis using QuickChange™ XL Site-Directed Mutagenesis Kit, Stratagene. • HIF-1 alpha P402/577G pcDNA3 containing the coding sequence of mouse hypoxia inducible factor-1alpha in which both HIF proline hydroxylase sensitive proline residues at positions 402 and 577 were replaced with glycine by site-directed mutagenesis using QuickChange™ XL Site-Directed Mutagenesis Kit, Stratagene. • HIF-2 alpha pcDNA3 containing the coding sequence of mouse hypoxia inducible factor-2 alpha (Gene bank accession number: AF045160). • HIF-RE2-luc, HIF reporter construct (constructed in pGL3, Promega) consisting of a minimal promoter containing a tandem of hypoxia responsible elements (FIG. 5, bold underlined) and the CMV promoter TATA box (FIG. 5, underlined) upstream of the firefly luciferase gene. • pRLTK (Promega) containing the coding sequence of renilla luciferase, used as transfection standard. • PH-alpha(I) pcDNA3 containing the coding sequence of human prolyl 4-hydroxylase alpha (I) (Gene bank accession number: U14620). • EGLN3 pcDNA3 containing the coding sequence of a recently identified human HIF-prolyl-hydroxylase (Epstein et al., Cell 107, 43-54, 2001; Bruick & McKnight, Science 294, 1337-40, 2001; gene bank accession number: XM—052824). • PH-2 pcDNA3 containing the coding sequence from SEQ ID NO:3.
(§3) In a typical experiment, 30 ng of HIF-RE2 pGL3 luciferase reporter plasmid and 10 ng pRLTK internal standard were cotransfected with prolyl-4 hydroxylase and HIF pCDNA3 expression plasmids. The amount of transfected pCDNA3 plasmids was kept constant at 60 ng by filling up with pCDNA3 empty cloning vector. Twenty-four hours later, luciferase activity was measured in a lumibox equipped with a Hamamatsu camera (Hamamatsu Photonics, Japan) using after lysis of cells in luciferase buffer.
Background: A reporter such as luciferase makes a cellular process visible.

The test system of assay [2] is HIF-1 alpha. Briefly: Cotransfection reporter assay (HIF-RE2-luc) with HIF-1 alpha in HEK/293 cells. Conditions: for sensitivity of double mutant HIF-1 alpha (P402/577G) activity to cotransfected hydroxylase: HEK/293, double mutant, constitutively active; for sensitivity of HIF-1 alpha P402G mutant to cotransfected hydroxylase, versus wild type HIF-1 alpha: HEK/293, glycine substituted for P402; for sensitivity of HIF-1 alpha P577 mutant to cotransfected hydroxylase: HEK/293, mutation of P577; for reduction of transactivation activity of cotransfected HIF-1 alpha on hypoxia responsive reporter gene construct: HEK/293, wild type HIF-1 alpha, equal amounts of each plasmid transfected. On the procedure:
as §1, §2, §3
A luciferase reporter construct in which a tandem of hypoxia responsive elements linked to a minimal promoter drive firefly luciferase was cotransfected with HIF-1 alpha and HIF-2 alpha, respectively, and with the candidate HIF prolyl 4-hydroxylases EGLN3 and PH-2, respectively.

In assay [3] the test system is HIF-2 alpha protein. Put plainly: Western blot analysis of HIF-2 alpha protein in cotransfected HEK/293 cells. Conditions: HEK/293, HIF-2 alpha specific polyclonal antibody. On the procedure: HIF-prolyl hydroxylase activity of PH-2 was examined in a cellular co-transfection assay in HEK/293 cells. In a typical experiment, cells were seeded at a density of 2×10^4 cells per well in 96-well tissue culture plates (Greiner, Germany) and grown in DMEM F12 tissue culture medium (Gibco) supplemented with 10% fetal calf serum (PAA) and antibiotics for 24 hours at 37° C. in a humidified tissue culture incubator (Heraeus, Germany) in a 5% CO2 atmosphere. Plasmid DNA was introduced into the HEK/293 cells by use of Lipofectamin reagent (Gibco) according to the manufacturer's instructions. […]

Setting [4] is: HEK/293, equal amounts of each plasmid transfected.

B1: PH-2: novel human prolyl 4-hydroxylase, SEQ ID NO:4; expressed from PH-2 pcDNA3 containing the coding sequence from SEQ ID NO:3 (protein, listed as Homo sapiens)
chain: MAAAAVTGQRPETAAAEEASRPQWAPPDHCQAQAAAGLGDGEDAPVRPLCKPRGICSRAYFLVLMVFVHLYLGNVLALLLFVHYSNGDESSDPGPQHRAQGPGPEPTLGPLTRLEGIKVGHERKVQLVTDRDHFIRTLSLKPLLFEIPGFLTDEECRLIIHLAQMKGLQRSQILPTEEYEEAMSTMQVSQLDLFRLLDQNRDGHLQLREVLAQTRLGNGWWMTPESIQEMYAAIKADPDADGVLSLQEFSNMDLRDFHKYMRSHKAESSELVRNSHHTWLYQGEGAHHIMRAIRQRVLRLTRLSPEIVELSEPLQVVRYGEGGHYHAHVDSGPVYPETICSHTKLVANESVPFETSCRYMTVLFYLNNVTGGGETVFPVADNRTYDEMSLIQDDVDLRDTRRHCDKGNLRVKPQQGTAVFWYNYLPDGQGWVGDVDDYSLHGGCLVTRGTKWIANNWINVDPSRARQALFQQEMARLAREGGTDSQPEWALDRAYRDARVEL
Regarding B1, in assay [1] (setting [4]), the “activity of HIF-2 alpha on the hypoxia responsive reporter gene construct” value is “reduced” and the “activity on HIF-2 alpha relative to EGLN3” value was “by a factor two less active”. In addition, in assay [1], the “activity of HIF-2 alpha on reporter” value was “completely abolished” and the “activity on HIF-2 alpha compared with activity on HIF-1 alpha” value is reported as “less active”. Besides, in assay [2], the “sensitivity of double mutant HIF-1 alpha (P402/577G) activity to cotransfected hydroxylase” value was “almost completely resistant”; the “sensitivity of HIF-1 alpha P402G mutant to cotransfected hydroxylase, versus wild type HIF-1 alpha” value is on record as “equally sensitive”; the “sensitivity of HIF-1 alpha P577 mutant to cotransfected hydroxylase” value is “less sensitive”; the “reduction of transactivation activity of cotransfected HIF-1 alpha on hypoxia responsive reporter gene construct” value (from here on “reduction”) is on record as roughly 80%. The “HIF-2 alpha protein by Western blot” value in assay [3] is on record as “disappearance”.

B2: PH-alpha(I): human collagen prolyl 4-hydroxylase alpha (I) (Gene bank accession number U14620), expressed from pcDNA3 (protein)
chain: HPGFFTSIGQMTDLIHTEKDLVTSLKDYIKAEEDKLEQIKKWAEKLDRLTSTATKDPEGFVGHPVNAFKLMKRLNTEWSELENLVLKDMSDGFISNLTIQRQYFPNDEDQVGAAKALLRLQDTYNLDTDTISKGNLPGVKHKSFLTAEDCFELGKVAYTEADYYHTELWMEQALRQLDEGEISTIDKVSVLDYLSYAVYQQGDLDKALLLTKKLLELDPEHQRANGNLKYFEYIMAKEKDVNKSASDDQSDQKTTPKKKGVAVDYLPERQKYEMLCRGEGIKMTPRRQKKLFCRYHDGNRNPKFILAPAKQEDEWDKPRIIRFHDIISDAEIEIVKDLAKPRLSRATVHDPETGKLTTAQYRVSKSAWLSGYENPVVSRINMRIQDLTGLDVSTAEELQVANYGVGGQYEPHFDFARKDEPDAFKELGTGNRIATWLFYMSDVSAGGATVFPEVGASVWPKKGTAVFWYNLFASGEGDYSTRHAACPVLVGNKWVSNKWLHERGQEFRRPCTLSELE
On to B2, for which, in assay [2], the “reduction” value is “did not reduce”.

B3: EGLN3: recently identified human HIF-prolyl-hydroxylase (gene bank accession number XM—052824), expressed from EGLN3 pcDNA3 (protein)
chain: MPLGHIMRLDLEKIALEYIVPCLHEVGFCYLDNFLGEVVGDCVLERVKQLHCTGALRDGQLAGPRAGVSKRHLRGDQITWIGGNEEGCEAISFLLSLIDRLVLYCGSRLGKYYVKERSKAMVACYPGNGTGYVRHVDNPNGDGRCITCIYYLNKNWDAKLHGGILRIFPEGKSFIADVEPIFDRLLFFWSDRRNPHEVQPSYATRYAMTVWYFDAEERAEAKKKFRNLTRKTESALTED
For B3, the “activity of HIF-2 alpha on the hypoxia responsive reporter gene construct” value in assay [1] (setting [4]) is reported as “reduced”. In addition, in assay [1], the “activity of HIF-2 alpha on reporter” value is “completely abolished” and the “activity on HIF-2 alpha compared with activity on HIF-1 alpha” value is listed as “less active”. In addition, in assay [2], the “sensitivity of double mutant HIF-1 alpha (P402/577G) activity to cotransfected hydroxylase” value was “almost completely resistant”; the “sensitivity of HIF-1 alpha P402G mutant to cotransfected hydroxylase, versus wild type HIF-1 alpha” value is “equally sensitive”; the “sensitivity of HIF-1 alpha P577 mutant to cotransfected hydroxylase” value was “less sensitive”; the “reduction” value was “about 90%”. Besides, the “HIF-2 alpha protein by Western blot” value in assay [3] is reported as “disappearance”.
